One test addresses human Siglec-6-Fc (Homo sapiens, UniProt O43699). As to the kind of experiment: SPR. A general note: Surface plasmon resonance follows binding to a sensor surface in real time, without labels.
Another test deals with human CD33-Fc (Homo sapiens, UniProt P20138). The test can be described thus: ELISA. Background: An ELISA detects its analyte on a solid surface through an enzyme-linked reagent.
The next test has as its target human Siglec-8-Fc (Homo sapiens, UniProt Q9NYZ4). As to the kind of experiment: ELISA.
Another test addresses human CD22-Fc (Homo sapiens, UniProt P20273). The test can be described thus: ELISA.

Sequence of human CD22-Fc (P20273 20-687): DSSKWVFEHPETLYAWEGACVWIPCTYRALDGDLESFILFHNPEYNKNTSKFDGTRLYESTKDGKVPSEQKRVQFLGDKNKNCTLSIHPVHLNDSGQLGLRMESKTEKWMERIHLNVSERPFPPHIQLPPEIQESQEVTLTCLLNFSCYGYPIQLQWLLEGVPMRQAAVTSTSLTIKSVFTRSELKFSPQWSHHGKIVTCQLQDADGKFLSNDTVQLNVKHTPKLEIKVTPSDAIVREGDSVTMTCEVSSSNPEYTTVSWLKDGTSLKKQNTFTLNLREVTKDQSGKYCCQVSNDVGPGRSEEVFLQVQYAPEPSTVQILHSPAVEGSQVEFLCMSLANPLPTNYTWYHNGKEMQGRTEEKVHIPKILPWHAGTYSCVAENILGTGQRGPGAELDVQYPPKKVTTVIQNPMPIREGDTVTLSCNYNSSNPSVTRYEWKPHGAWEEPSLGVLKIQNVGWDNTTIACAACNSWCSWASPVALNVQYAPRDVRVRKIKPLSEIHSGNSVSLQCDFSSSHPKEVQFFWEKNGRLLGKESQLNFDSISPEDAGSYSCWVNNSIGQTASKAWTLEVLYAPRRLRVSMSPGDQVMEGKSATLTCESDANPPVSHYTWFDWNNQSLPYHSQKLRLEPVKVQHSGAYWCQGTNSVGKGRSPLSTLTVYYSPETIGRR
Sequence of human CD33-Fc (P20138 18-259): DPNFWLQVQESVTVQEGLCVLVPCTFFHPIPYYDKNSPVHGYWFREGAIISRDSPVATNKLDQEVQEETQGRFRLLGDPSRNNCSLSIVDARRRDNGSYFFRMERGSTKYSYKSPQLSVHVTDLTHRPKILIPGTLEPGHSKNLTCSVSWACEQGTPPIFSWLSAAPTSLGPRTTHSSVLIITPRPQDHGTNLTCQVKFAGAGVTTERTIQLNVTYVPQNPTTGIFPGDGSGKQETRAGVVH
Sequence of human Siglec-8-Fc (Q9NYZ4 17-363): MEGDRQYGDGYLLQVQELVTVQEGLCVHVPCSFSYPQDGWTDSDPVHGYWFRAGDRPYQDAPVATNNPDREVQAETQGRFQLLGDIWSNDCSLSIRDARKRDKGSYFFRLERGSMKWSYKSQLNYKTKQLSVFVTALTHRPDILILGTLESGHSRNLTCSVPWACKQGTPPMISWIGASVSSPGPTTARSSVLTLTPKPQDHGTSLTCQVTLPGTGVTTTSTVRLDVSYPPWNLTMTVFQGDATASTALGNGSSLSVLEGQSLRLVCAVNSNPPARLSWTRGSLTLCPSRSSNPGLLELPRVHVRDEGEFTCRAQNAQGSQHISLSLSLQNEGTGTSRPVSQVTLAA
Sequence of human Siglec-6-Fc (O43699 27-347): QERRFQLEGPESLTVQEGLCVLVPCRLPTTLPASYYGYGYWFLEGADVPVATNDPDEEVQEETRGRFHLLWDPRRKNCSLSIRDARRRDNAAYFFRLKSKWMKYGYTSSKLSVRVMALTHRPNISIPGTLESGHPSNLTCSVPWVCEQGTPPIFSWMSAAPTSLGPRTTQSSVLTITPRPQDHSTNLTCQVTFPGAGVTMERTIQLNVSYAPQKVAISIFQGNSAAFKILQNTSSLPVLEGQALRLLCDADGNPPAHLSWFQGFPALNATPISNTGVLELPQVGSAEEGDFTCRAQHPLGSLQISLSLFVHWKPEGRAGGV

B1: JML-1 Fab (Fab, V domains shown)
VH: KVQLLESGGGLVQPGRSLRLSCAASGFTFDDYGMHWVRQAPGKGLEWVSGISWNSGSIGYADSVKGRFTISRDNSKNTLYLQMNSLRAEDTAVYYCARGGQTIDIWGQGTMVTVSS
VL: not shown
The Kd is the free concentration of one partner at which half of the binding sites on the other are occupied at equilibrium, for simple one-to-one binding. Higher therefore signals lower affinity. The molecule B1 displayed a Kd with human Siglec-6-Fc of 2.8 nM.

B2: JML-1 IgG1 (antibody, V domains shown)
VH: B1 VH
VL: not shown
In the case of B2, the binding result with human CD33-Fc, with human Siglec-8-Fc and in the test with human CD22-Fc was “no binding (tested: 1 μg/mL)” each time.

The record behind these values is article PMC6125214 (Cancer immunology research, 2018).
